According to article PMC10333326:

Target: NFAT5 (TonEBP) (UniProt O94916)
Test: co-immunoprecipitation, Western blot
Conditions: reference: EZH2 wild type; sites S21

Substance: EZH2 (from UniProt Q15910) EZH2 S21A
- binding against the reference: weaker
